The target in the data set is T1, Upc2A DNA-binding domain (Candida glabrata) (UniProt Q6FX18).
T1 sequence: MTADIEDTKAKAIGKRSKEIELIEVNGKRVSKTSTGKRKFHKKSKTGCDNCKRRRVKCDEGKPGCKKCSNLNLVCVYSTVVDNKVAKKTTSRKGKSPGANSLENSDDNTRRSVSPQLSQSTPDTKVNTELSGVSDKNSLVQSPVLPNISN
In words: DNase I footprinting. The conditions noted are these: 5' amino-MC6 on reverse strand.

Turning to “ACTGCCACACAGAAGAGCAGCGGGACTACCGGAACACGATTAGCCTTCGTTTACATGTTGGCAAACCCAGGACATAGATCAGAGTGTATTACATTAGCACAGACCGGCCGTGGGTAAGTTTTTCCTGACTAAAATGGCCGCAGCTGCAAGTCCACGGAATATTTCCCTTTTTTGCTCGATAAGTTGTAC (double strand) [CDR1 promoter DNase I probe]”, the binding result is “binds”.

The values above are taken from publication PMC8509923.
